Results taken from US20170043011A1.

Biological target: human CD81 on Hep3B hepatoma cells (human) (UniProt P60033)
Test: cell-based or functional assay

Sequence of UniProt P60033 (P60033 whole entry): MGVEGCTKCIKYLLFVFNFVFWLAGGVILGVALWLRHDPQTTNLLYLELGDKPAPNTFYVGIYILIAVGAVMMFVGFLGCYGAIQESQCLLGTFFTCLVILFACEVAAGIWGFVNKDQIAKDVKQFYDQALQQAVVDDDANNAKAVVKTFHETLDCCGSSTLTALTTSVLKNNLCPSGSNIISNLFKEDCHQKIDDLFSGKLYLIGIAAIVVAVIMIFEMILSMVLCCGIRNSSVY

Q: For “mouse anti-human CD81 monoclonal antibody, clone 1.3.3.22 (Santa Cruz Biotechnology)”, which fold decrease in infectivity of Bole1a HCVpp on Hep3B cells (luciferase RLU) is on record?
A: Its fold decrease in infectivity of Bole1a HCVpp on Hep3B cells (luciferase RLU) is 10 fold.
